These results are taken from a protein production outcome set (Wang et al. 2014).

The series in a line: label from the status in PepcDB records.
Take “MDRNYSNWQSLTSLALFLLPFLFIGWLFDLFWPVTALALLGLVCWHYYYQQKLIKWLWQSRTLMPPSAPGSWSYIYDGIYRSQRRSQKRRKALARLLRRFREAAEALPDAAIVFRADGALLWSNKLAQFYFGLRWPDDAGQRLSNLIRHPEFYAYLNAGNFDEELTIPSPIRESLDIEIRIMPYSEDQFLLVARDVTQVKRLENLRREFVANVSHELKTPLTVLQGYLEMMDEPQQTPPAMLKKAVENMNAQSTRMANLVDQLLTLSRMETPSNDVFDHEVDMPALLEQLESEAKRLNEVKQHKIEFDVAPVRIYGKENLLRSAMQNLITNAINYTPDGGEIKVTWKTVAGGVEFSVKDNGKGIAAEHLPRLTERFYRVEDDRNSASGGTGLGLSIVKHAIEHHNSQLDINSSLEKGSRFSFRIPSGLLVS”: the protein production entry was “failed”.

As to “MPDLTRRNFSNLLSFPMPDTRPAKAGGQPRPFFRLGVVRFGLATALALFWVGAFASTATGQRTSRTPDQLENVGVDQKLGATIPKDLSFQNEQGEPVRLSQYFDGSTPVMLTLNYHRCPQLCRIQLQKFTKSLSGMSWTAGDKFKVLTVDISPYEGPKMARKAQERYATFLDRPEETVDGWHFLTGNQAAIETLTDSVGFRYQPLPEKEKQFAHPTTIIFLSGDGTITRYFTTLDPAPGDLRTALVEASDGTVGNVVDKAFLACARFNPDSNSYSASAFKLMQYGSVLTVIVMGAALFVFWRRENEQLETAHEEGLNAMVDEQA”, the protein production result is “failed”. To “MFMNRLFGKPKQETSTLQTLDKLNETLEMLEKKENVLLKKATGEVEKAKEFSRAKNKRAAIQCLKRKRLYEQQVEQLGNFQLRIHDQMIMLEGAKATTETVDALRTGASAMKAMQKATNIDDVDKTMDEINEQTENMKQIQEALSAPFGANDFDEDELEAELDELEGAELEEQLLQPVPIHVPQGNKPARAPAQKQPTAEEDELAALQAEMAL” belongs “failed”; to “MSIDLKKRKVEEDVRSRGKNSKIFSPFRIIGNVSNGVPFATGTLGSTFYIVTCVGKTFQIYDANTLHLLFVSEKETPSSIVALSAHFHYVYAAYENKVGIYKRGIEEHLLELETDANVEHLCIFGDYLCASTDDNSIFIYKKSDPQDKYPSEFYTKLTVTEIQGGEIVSLQHLATYLNKLTVVTKSNVLLFNVRTGKLVFTSNEFPDQITTAEPAPVLDIIALGTVTGEVIMFNMRKGKRIRTIKIPQSRISSLSFRTDGSSHLSVGTSSGDLIFYDLDRRSRIHVLKNIHRESYGGVTQATFLNGQPIIVTSGGDNSLKEYVFDPSLSQGSGDVVVQPPRYLRSRGGHSQPPSYIAFADSQSHFMLSASKDRSLWSFSLRKDAQSQEMSQRLHKKQDGGRVGGSTIKSKFPEIVALAIENARIGEWENIITAHKDEKFARTWDMRNKRVGRWTFDTTDDGFVKSVAMSQCGNFGFIGSSNGSITIYNMQSGILRKKYKLHKRAVTGISLDGMNRKMVSCGLDGIVGFYDFNKSTLLGKLKLDAPITAMVYHRSSDLFALALDDLSIVVIDAVTQRVVRQLWGHSNRITAFDFSPEGRWIVSASLDSTIRTWDLPTGGCIDGIIVDNVATNVKFSPNGDLLATTHVTGNGICIWTNRAQFKTVSTRTIDESEFARMALPSTSVRGNDSMLSGALESNGGEDLNDIDFNTYTSLEQIDKELLTLSIGPRSKMNTLLHLDVIRKRSKPKEAPKKSEKLPFFLQLSGEKVGDEASVREGIAHETPEEIHRRDQEAQKKLDAEEQMNKFKVTGRLGFESHFTKQLREGSQSKDYSSLLATLINFSPAAVDLEIRSLNSFEPFDEIVWFIDALTQGLKSNKNFELYETFMSLLFKAHGDVIHANNKNQDIASALQNWEDVHKKEDRLDDLVKFCMGVAAFVTTA”, “failed”. The same measure for “MSAEAADREAVSGSRPCTPPQTSWFEFLLNPSLLEQHLHSPHPDPSPVQLIFQFLEQASKPSVNEQNQVQPPVDNRRNRTLKLMALKVAAHLRWDLNMLEKGLTIPVLNMLLNELLCVSHVPPGVKHVDLDLSSLPPTTAMAVVFYNRWAIRTIVLSSFPEKQTKPGPHQLNMMNMLQQEKEHTENILSVLREQATDSIMVLEGALSIKKDFYIHL”: “not failed”; for “MPFHGDAQENTWPNSRASPMSLASKLPRFRWLLPAFVVLVGVVLTIVMHWDDRAGLWWKESQASQQQRDESIWLPGYRVVIDAKPLQGLEEEETSDLAYNPATRTLFTVTGKRPLLVELSLTGDVLRTIPLLGLSNPEGVAVLENGNVAVTDERRNTLTIFHVDPQTAELSTKSLAEFPLGNIGKKNKGFEGIAWDPRQQRLLLSKERDPMTLFSWKSDGGPSLSGAMTALPSDDLYMRNVSALSVDPRTGHTLVLSAESHLLLELDEKGEPVSFISLLGGFNGLDSKIPRAEGVAIDDEGTIYMVSEPNLFYVFRKKSGERLATSDADLEHHHHHH”: “failed”; for “MTTTTAQPAASLAAALEHAERLLEVDPVMAAEQARAILEVVPRHADTTRVLAAAQRLSGDAEGGLATVAPLAMALPNLPLAQLELALCLERLGRTAEAARAFDRVSALEPRLSEAWRGLSESLELLGDRQGAERALARQLRASTRDPLLVEAATALAEDRLGEAERLLRDRLKADAGDVAAIRMLAETGARLGRYADAEALLTRCMELAPNFAAARHNLATMLYRQNKNLEALAQIEQLVAKDARHPGYANLYAAILARLGEYDRAIAVYGQVLADYPNQPKGWMSYGHALKTVGRQADSVAAYRKALDLAPTLGEVWWSLANLKTVRFTPEDLAAMSQALEAEGLSEDDRLHLHYALGKAQEDAQDWDASFQHYAAGAAIRREQLDYDADENTADTVRTKAVFSPAFIAARGGQGCAAPDPIFVVGLPRSGSTLVEQILASHSLVEGTMELPDLIVMARRLGGKTAKRAESTYPESLAELSPEDLRALGEEFLERTRIQRKTDKPFFIDKMPNNFAHTGLIHLILPNAKIIDARRHPLGCCFSGFKQHFARGQAFSYDLTDIGRYYADYVDLMAHFDAVLPGRVHRVIYERMIADPEAEIRALLDHCGLPFEEACLSPHENDRAVRTASSEQVRRPIFKDAVEHWQKFESHLGPLKQALGPVLTAYPDAPVI”: “failed”. The same measure for “KKISSTAVIELALDLATSLNTKDRFDRLLDTVRKTITCDAVALLSYHGDVLKPIALQGLSRDTLGRRFYVEEHPRFLALCQSKSPIRFAADSPLPDPYDGLLIDREGDLPVHSCMGLPLYYDDKLLGLLTIDSLTPHDFEDIDVRMLEVISAIAAATLNTAFLLDQLESRADHSQRVVAELTEEAWKRDGGE”: “failed”; for “MNNKLKTQAVEQLFQAILSLKDLDEAYDFFEDVCTINEILSLSQRFEVAKMLREHRTYLDIAEKTGASTATISRVNRSLNYGNDGYDRVFERLGMLEKESEDNK”: “not failed”. Consider “MNKNQMLLGSFLCLLAVTAWGFMFPVMARALQFIDPFFFTTLRYGSAAIIFLILLLITEGKTSLRLEKRTLSLFFYGTVGFAGYGFLVFYGQQLAGPSGAIHAAMIQSLMPLIALSLQWITQNRRPQNYTFLCMFVALLGVMLVISKGNIELLFGAASHLSTNILMLCGVTCWVIYTNGAARFQSWSPLRYTTLTCLFGSISLIVIVTFLTYTNIVTMPSLRTVVSVRFELFYMSIIAGVIAVFCWNMGNRYISSINGILFMNLVPILALIGSIFRGYTVDKIEIAGAALTIIALLCNNLWQRKVNIKIPTSVR”, for which the protein production result is on record as “failed”. The same measure for “MCRTRPSCGRMEEKRPVDAAGAVALIGIAALLAFNQVVIKVTGGGFGPLFQAGLRSALGLVFVLIWMRLLRKPIVFPRAALMGALITGLLFTVEFMALFAALDLTSVSRVSILFYSMPVWLALGGHFLLPGERLSGMRVLGLMLAMGGVVLALLERDAAHVSLLGDALAVFAAMCWAAIALGVRLTPLGRVPAEMQLMSQLVISAPLLLVLAPLTGETLRTPGLLHWAGLLFQAVGVVGLGFLIWFRLLAVYRANGVASFSFLSPVLAVILGWLLLGEQVGPLVWLALGLVAAGIVLINRR”: “failed”; for “MNLLTVSTDLISIFLFTTLFLFFARKVAKKVGLVDKPNFRKRHQGLIPLVGGISVYAGICFTFGIVDYYIPHASLYLACAGVLVFIGALDDRFDISVKIRATIQAAVGIVMMVFGKLYLSSLGYIFGSWEMVLGPFGYFLTLFAVWAAINAFNMVDGIDGLLGGLSCVSFAAIGMILWFDGQTSLAIWCFAMIAAILPYIMLNLGILGRRYKVFMGDAGSTLIGFTVIWILLETTQGKTHPISPVTALWIIAIPLMDMVAIMYRRLRKGMSPFSPDRQHIHHLIMRAGFTSRQAFVLITLAAALLASIGVLAEYSHFVPEWVMLVLFLLAFFLYGYCIKRAWKVARFIKRVKRRLRRNRGGSPNLTK”: “failed”. To “MYFFVPTANSKINQMIFYLSSMNLDMIKEYILSFGIWAPITSFLLMVLQSVIAPIPAFLITLSNAAIFGWVKGAILSWSSAMAGAALCFYIARGLGRDAVEKLTSKFALKDIDGFFEKYGKHTILIARLLPFISFDLVSYAAGLTSMNFWSFFIATGIGQLPATIVYSYVGGMLTGGAQLLMSGLLILFALSIAIYVGKKVWNEKRGKNDK” belongs “failed”; to “MTAAILVTGATGKLGQRVVNRLLQKQAKVRVLTRRREDALKLWGDSVDIAEGNFSDPASLKGASRDVDRVFLLSPIGKTLAADQNAVVDAALSAGVSQIVKLSGSDWTLKNAARSISGTAHAAVEKHLAETGIAHTVLRPNAWMQVALEPVVAALRNGEDVPARFGNAAVSFIDADDIADVAVEALSASAPPAGTLVLTGHEALAALGIARIAARILHRPVGVSHQSASTFPAHIGGFEQKAIAEFGQLIGEGLAASTTDIVEQIIGHPPRSVENYLRARLAVAQQGDHSEGEKTWR”, “failed”. To “MMRHERLRFWLAGLAAAATGWLCYAGLARLAGALGVATWIPYPALRRQWLLIGESWQSAEFSGAIADASVFLTALAAVAAYYCARIVYHLSFAPVRQRRARWLIAGWIVGTVAMVALSQSLGWLYGAFPGFARIGWLSAALGFAVLAGAASGFARAWGRLMRARKVPATE” belongs “failed”; to “MSSSSPSGSGSDLTERRGIPAAKFIQDVETYLSQSGLDPNSALAFHQERLQQYKVVEMKLLAQQRDLQAKIPDIEKCLEVVATLEAKKGTGEALLADFEVSEGIYSRACIEDTDSVCLWLGANVMLEYSCEEASALLKNNLENAKASLEVLVADLQFLRDQVTVTQVTIARVYNWDVHQRRVKQVTPTAIAVADS”, “failed”. In the case of “MASPAAGDVLIVGSGLVGRSWAMLFASGGFRVKLYDIEPRQITGALENIRKEMKSLQQSGSLKGSLSAEEQLSLISSCTNLAEAVEGVVHIQECVPENLDLKRKIFAQLDSIVDDRVVLSSSSSCLLPSKLFTGLAHVKQCIVAHPVNPPYYIPLVELVPHPETSPATVDRTHALMRKIGQSPVRVLKEIDGFVLNRLQYAIISEAWRLVEEGIVSPSDLDLVMSDGLGMRYAFIGPLETMHLNAEGMLSYSDRYSEGMKRVLKSFGSIPEFSGATVEKVNQAMCKKGPADPEHLAARREWRDECLKRELAKLKRQMQPQ”, the protein production entry is listed as “not failed”.

Regarding “MGQMISEMRHGVRRPVWHDLAERFDEPRECLASFLALEAAEVLAGEKPANLIGIANRTRACGRNLYVLWKQWGAMVLGESGLAVRELSDRGDSLLLLLYRPEALEALLRRPSASAVLARAGYGAATGLDEVLTELSTRIDGDRFPHEIGVFLGYPLKDVAAFMGLVRIPFACQGPWKIFGDPRESLRLAEVFRCCRARMAERLNRCTSALDCLADGSPRPVVGFDEIESHSYGGKAMCIAVIGGMDRLEKHYREEAVRSGVELRMFSQSENNIAVKLKRFDALVIFTNKVSHRVKNEAMAVAKQNGIPVFMHHSCGVCTLRDCLSCLTATVAHVGESDRPDLGRRKNHS”, the protein production entry is given as “failed”.
